Measured values: paper PMC5499727 (Nucleic Acids Research, 2017)

Target: Mcm2/4/6/7 complex (wild type) (mouse, UniProt P97310 1-904; P49717 1-862; P97311 1-821; Q61881 1-719)
Assay: co-sedimentation

Chain of Mcm2/4/6/7 complex (wild type) (P97310 whole entry, chain 1 of 4): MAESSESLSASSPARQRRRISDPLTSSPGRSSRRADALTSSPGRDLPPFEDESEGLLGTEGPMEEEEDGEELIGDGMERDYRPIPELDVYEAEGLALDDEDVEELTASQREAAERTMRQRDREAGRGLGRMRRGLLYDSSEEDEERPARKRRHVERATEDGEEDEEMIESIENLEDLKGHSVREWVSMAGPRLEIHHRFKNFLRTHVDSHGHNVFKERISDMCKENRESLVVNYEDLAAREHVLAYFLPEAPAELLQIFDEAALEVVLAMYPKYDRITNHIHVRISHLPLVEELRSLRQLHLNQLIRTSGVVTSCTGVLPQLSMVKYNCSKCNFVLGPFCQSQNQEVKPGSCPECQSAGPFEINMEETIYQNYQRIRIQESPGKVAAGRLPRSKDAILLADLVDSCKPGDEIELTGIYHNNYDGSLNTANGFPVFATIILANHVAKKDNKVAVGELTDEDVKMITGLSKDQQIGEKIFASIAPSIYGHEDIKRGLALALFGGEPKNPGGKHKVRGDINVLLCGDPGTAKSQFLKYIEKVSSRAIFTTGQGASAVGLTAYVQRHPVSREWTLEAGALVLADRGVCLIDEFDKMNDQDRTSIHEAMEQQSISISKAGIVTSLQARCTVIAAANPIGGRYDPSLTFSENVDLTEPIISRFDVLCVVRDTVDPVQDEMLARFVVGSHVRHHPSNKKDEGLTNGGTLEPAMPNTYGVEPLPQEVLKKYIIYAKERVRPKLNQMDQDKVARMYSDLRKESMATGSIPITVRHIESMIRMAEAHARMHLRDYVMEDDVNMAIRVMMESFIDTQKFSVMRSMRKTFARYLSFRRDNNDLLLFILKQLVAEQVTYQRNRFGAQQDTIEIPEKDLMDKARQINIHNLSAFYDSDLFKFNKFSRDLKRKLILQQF
Chain of Mcm2/4/6/7 complex (wild type) (P49717 whole entry, chain 2 of 4): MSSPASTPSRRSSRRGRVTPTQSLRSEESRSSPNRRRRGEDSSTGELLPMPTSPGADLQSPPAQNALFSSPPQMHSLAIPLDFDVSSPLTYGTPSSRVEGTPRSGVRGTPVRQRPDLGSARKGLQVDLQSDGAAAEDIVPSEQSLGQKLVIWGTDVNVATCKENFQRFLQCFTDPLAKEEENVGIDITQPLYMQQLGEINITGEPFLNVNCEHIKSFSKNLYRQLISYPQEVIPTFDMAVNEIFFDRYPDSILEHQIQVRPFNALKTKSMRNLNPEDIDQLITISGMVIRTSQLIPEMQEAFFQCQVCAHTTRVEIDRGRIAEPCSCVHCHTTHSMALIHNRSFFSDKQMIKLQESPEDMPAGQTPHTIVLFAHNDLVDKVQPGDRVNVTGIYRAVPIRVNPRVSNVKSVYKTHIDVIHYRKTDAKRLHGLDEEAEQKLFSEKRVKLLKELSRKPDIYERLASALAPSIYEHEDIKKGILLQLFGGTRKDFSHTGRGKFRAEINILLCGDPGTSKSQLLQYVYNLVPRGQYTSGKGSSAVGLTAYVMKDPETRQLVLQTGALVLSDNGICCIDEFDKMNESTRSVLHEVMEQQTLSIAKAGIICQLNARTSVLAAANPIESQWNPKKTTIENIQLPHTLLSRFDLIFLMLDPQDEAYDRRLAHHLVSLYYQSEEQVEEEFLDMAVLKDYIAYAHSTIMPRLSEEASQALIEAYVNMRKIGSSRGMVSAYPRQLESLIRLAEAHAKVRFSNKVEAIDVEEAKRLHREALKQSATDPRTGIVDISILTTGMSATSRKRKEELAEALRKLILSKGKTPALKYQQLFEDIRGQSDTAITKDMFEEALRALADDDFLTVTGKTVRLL
Chain of Mcm2/4/6/7 complex (wild type) (P97311 whole entry, chain 3 of 4): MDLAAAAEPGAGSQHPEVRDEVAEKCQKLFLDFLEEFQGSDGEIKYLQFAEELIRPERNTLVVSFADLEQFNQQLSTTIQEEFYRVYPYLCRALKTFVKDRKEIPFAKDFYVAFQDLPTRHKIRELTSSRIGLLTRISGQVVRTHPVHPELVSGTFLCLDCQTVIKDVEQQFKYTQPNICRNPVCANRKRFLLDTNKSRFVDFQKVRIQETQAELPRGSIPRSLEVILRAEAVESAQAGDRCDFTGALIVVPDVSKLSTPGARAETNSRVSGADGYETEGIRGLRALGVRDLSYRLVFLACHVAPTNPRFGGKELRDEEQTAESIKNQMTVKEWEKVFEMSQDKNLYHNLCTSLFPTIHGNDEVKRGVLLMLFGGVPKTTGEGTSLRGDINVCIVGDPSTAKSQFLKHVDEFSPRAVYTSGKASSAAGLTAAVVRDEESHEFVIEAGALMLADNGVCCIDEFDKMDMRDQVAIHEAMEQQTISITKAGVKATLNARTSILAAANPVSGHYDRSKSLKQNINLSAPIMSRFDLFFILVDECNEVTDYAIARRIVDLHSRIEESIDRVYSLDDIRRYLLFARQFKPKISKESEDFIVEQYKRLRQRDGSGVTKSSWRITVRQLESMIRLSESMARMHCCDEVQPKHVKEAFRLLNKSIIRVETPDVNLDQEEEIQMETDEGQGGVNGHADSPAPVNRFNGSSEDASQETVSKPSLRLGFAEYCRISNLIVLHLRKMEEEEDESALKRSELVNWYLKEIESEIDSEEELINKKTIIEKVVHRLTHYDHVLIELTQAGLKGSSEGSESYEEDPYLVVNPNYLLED
Chain of Mcm2/4/6/7 complex (wild type) (Q61881 whole entry, chain 4 of 4): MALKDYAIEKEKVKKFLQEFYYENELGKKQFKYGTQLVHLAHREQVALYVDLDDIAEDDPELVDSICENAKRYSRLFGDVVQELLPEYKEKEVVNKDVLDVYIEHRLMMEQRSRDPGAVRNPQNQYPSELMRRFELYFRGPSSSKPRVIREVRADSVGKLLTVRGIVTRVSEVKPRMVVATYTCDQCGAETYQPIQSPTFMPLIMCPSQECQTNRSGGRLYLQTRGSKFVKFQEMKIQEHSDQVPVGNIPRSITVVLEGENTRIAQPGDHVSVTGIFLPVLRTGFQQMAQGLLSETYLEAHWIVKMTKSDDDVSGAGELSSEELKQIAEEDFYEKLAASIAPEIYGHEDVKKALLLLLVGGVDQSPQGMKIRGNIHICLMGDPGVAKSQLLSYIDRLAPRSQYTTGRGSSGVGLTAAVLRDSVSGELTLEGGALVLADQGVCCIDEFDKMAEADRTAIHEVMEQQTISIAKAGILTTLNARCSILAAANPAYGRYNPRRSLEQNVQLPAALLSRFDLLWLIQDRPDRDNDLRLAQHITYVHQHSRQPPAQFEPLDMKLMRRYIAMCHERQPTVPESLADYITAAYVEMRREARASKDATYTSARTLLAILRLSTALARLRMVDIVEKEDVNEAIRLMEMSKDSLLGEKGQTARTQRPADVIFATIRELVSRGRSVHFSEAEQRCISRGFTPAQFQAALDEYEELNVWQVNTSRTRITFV

B1: Mcm3/5 complex (wild type) (complex, mouse)
chain 1: MAGTVVLDDVELREAQRDYLDFLDDEEDQGIYQNKVRELISDNQYRLIVSVNDLRRKNEKRANRLLNNAFEELVAFQRALKDFVASIDATYAKQYEEFYIGLEGSFGSKHVSPRTLTSCFLSCVVCVEGIVTKCSLVRPKVVRSVHYCPATKKTIERRYSDLTTLVAFPSSSVYPTKDEENNPLETEYGLSVYKDHQTITIQEMPEKAPAGQLPRSVDVILDDDLVDKVKPGDRIQVVGTYRCLPGKKGCYTSGTFRTVLIACNVKQMSKDIQPAFSADDIAKIKKFSKTRSKDVFEQLARSLAPSIHGHDYVKKAILCLLLGGVERELENGSHIRGDINILLIGDPSVAKSQLLRYVLCTAPRAIPTTGRGSSGVGLTAAVTTDQETGERRLEAGAMVLADRGVVCIDEFDKMSDMDRTAIHEVMEQGRVTIAKAGIHARLNARCSVLAAANPVYGRYDQYKTPMENIGLQDSLLSRFDLLFIMLDQMDPEQDREISDHVLRMHQYRAPGEQDGDALPLGSSVDILATDDPDFTQDDQQDTRIYEKHDSLLHGTKKKKEKMVSAAFMKKYIHVAKIIKPTLTQESAAYIAEEYSRLRSQDSMSSDTARTSPVTARTLETLIRLATAHAKARMSKTVDLQDAEEAVELVQYAYFKKVLEKEKKRKKASEDESDLEDEEEKSQEDTEQKRKRRKTHAKDGESYDPYDFSEAETQMPQVHTPKTDDSQEKTDDSQETQDSQKVELSEPRLKAFKAALLEVFQEAHEQSVGMLHLTESINRNREEPFSSEEIQACLSRMQDDNQVMVSEGIVFLI
chain 2: MSGFDDPGIFYSDSFGGDPGAEEGQARKSQLQRRFKEFLRQYRVGTDRTGFTFKYRDELKRHYNLGEYWIEVEMEDLASFDEELADHLHKQPAEHLQLLEEAAKEVADEVTRPRPAGDELLQDIQVMLKSDASPSSIRILKSDMMSHLVKIPGIIISASAVRAKATRISIQCRSCHNTLTNIAMRPGLEGYALPRKCNMDQAGRPKCPLDPYFIMPDKCKCVDFQTLKLQELPDAVPHGEMPRHMQLYCDRYLCDKVVPGNRVTIMGIYSIKKFGLNPSKGRDRVGVGIRSSYIRVLGIQVDTDGSGRSFAGSVSPQEEEEFRRLAALPNIYELISKSISPSIFGGMDMKKAIACLLFGGSRKRLPDGLTRRGDINLLMLGDPGTAKSQLLKFVEKCSPIGVYTSGKGSSAAGLTASVIRDPSSRNFIMEGGAMVLADGGVVCIDEFDKMREDDRVAIHEAMEQQTISIAKAGITTTLNSRCSVLAAANSVFGRWDETKGEDNIDFMPTILSRFDMIFIVKDEHNEERDMMLAKHVMTLHVSALTQTQAVEGEIDLAKMKKFIAYCRARCGPRLSAEAAEKLKNRYIIMRSGARQHERDSDRRSSIPITVRQLEAIVRIAEALSKMKLQPFATEADVEEALRLFQVSTLDAALSGNLSGVEGFTTQEDQEMLSRIEKQLKRRFAIGSQVSEHSIVQDFTKQKYPEHAIRKVLQLMLRRGEIQHRMQRKVLYRLK
- binding result: binds
